Test results published in patent US20230041071A1 (NATIONAL INSTITUTE OF BIOLOGICAL SCIENCES BEIJING, published 2023).
Where no end group is shown, it is not given here.

Key:
[1] = target: T1, hAREG: human AREG comprising residues 101-184 of the human pro-AREG with an N-terminal AVI tag (human, biotinylated using BirA enzyme (Avi tag)); assay: ELISA, biotinylated hAREG captured on streptavidin-coated plate, bound IgG detected with HRP anti-Fc antibody
T1 construct: Expressed in E. coli with His6-TRX-3C site-Avi tags and cleaved by HRV 3C protease; also called biotinylated hAREG
T1 chain: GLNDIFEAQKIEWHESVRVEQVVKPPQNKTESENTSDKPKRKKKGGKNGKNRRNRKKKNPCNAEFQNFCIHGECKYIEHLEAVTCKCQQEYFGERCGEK
Procedure: (§1) Streptavidin (Sigma, […]) in phosphate buffered saline (PBS) was coated in U-bottom 96-well plate (Nunc, MaxiSorp™), 100 μL per well, at 4° C. overnight or 37° C. for 1 hour.
(§2) About […] of AREG protein or peptide at 100 μL per well were then captured onto the plates by incubation at 30° C. for 1 hour. For phage-scFv based ELISA, serial diluted phage-scFvs in PBS containing 2% nonfat milk were added to each well at 100 μL per well. Specific bound phage-scFvs were detected by adding HRP-conjugated mouse anti-M13 antibody (GE Healthcare) and incubated for 30 mins at 30° C. In between each incubation step, the ELISA plate was washed for 6 times with PBST solution (0.05% Tween20 containing PBS) at 300 µL per well. Followed by HRP-conjugated antibody incubation, the ELISA signal was developed by incubating with TMB substrate (Sigma) for 5-10 mins at 30° C. and then the reaction was stopped with 2M H₂SO₄ at 50 µL per well. The absorbance at 450 nm with the correction wavelength set at 630 nm was read by a microplate reader (Bio-Rad). For IgG based ELISA, the method was basically the same as described above for phage-scFvs except the bound antibodies were detected by HRP-conjugated mouse anti-Fc secondary antibody (Thermo Fisher Scientific).

mAREG-EGFd-DLLA-mFc = target: T2, mAREG-EGFd-DLLA-mFc (mouse, UniProt P31955 135-177, limits assumed); assay: competition ELISA; antibody titrated against 50 nM mAREG-DLLA on captured mEGFR-ECD
T2 construct: Expressed in 293F cells; also called mAREG-DLLA
T2 chain: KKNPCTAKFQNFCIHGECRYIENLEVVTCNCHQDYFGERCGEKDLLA
Procedure: Briefly, streptavidin (Sigma, 5 μg/mL) were coated in U-bottom 96-well plates, 100 nM biotinylated hEGFR-ECD or mEGFR-ECD in 100 μL per well were then captured onto the plates. Different antibodies at serial diluted concentrations were mixed with 5 nM hAREG-DLLA or 50 nM mAREG-DLLA protein and added to the ELISA plate. The binding of hAREG-DLLA to hEGFR-ECD or the binding of mAREG-DLLA to mEGFR-ECD was detected by HRP-conjugated mouse anti-mouse IgG Fc antibody (Thermo Fisher).
To facilitate the competition ELISA assay, we used the hAREG-EGFd-DLLA-mFc (hAREG-DLLA) or mAREG-EGFd-DLLA-mFc (mAREG-DLLA) as the ligands for binding to EGFR in the assay.

C18 peptide [2] = target: T3, C18 peptide (human, cysteine pairing not given here; also: biotinylated, position not given here); assay: ELISA, biotinylated C18 peptide captured on streptavidin-coated plate, bound IgG detected with HRP anti-Fc antibody
T3 construct: Synthetic (Scilight-peptide); also called hAREG-C18; C-terminal peptide
T3 peptide: GSSGKCQQEYFGERCGEK
Procedure: as §1, §2

[3] = target: T4, mAREG: mouse AREG comprising residues 94-177 of the mouse pro-AREG with an N-terminal AVI tag (mouse, biotinylated using BirA enzyme (Avi tag)); assay: ELISA, biotinylated mAREG captured on streptavidin-coated plate, bound IgG detected with HRP anti-Fc antibody
T4 construct: Expressed in E. coli, cleaved by HRV 3C protease, biotinylated; also called biotinylated mAREG
T4 chain: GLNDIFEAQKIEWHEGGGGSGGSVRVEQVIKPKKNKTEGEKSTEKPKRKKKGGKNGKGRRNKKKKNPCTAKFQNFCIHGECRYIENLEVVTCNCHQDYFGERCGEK
Procedure: as §1, §2

[4] = target: T1, hAREG: human AREG comprising residues …; assay: hybridoma screening by ELISA on biotinylated hAREG and SPR
Procedure: The supernatant of hybridoma clones were examined for binding activity to biotinylated hAREG by ELISA. Clones with high binding activity were selected and expanded for subsequent subcloning, and the supernatant of the subclones were analyzed by ELISA and SPR. The SPR analysis was performed using Biacore T200 instrument (GE Life Sciences). Diluted supernatant was captured on anti-mFc CM5 biosensor chip, then 200 nM of hAREG EGF domain-hFc flowed in mobile phase. Subclones with high affinity was expanded for RNA extraction. Cells were resuspended in TRIzol (Life Technologies), and total RNA was extracted following the instruction manual. The cDNA of subclones was synthesized using PrimeScript™ RT Master Mix (TaKaRa). The VH and VL genes of each antibody were amplified using a set of PCR primers specific to mouse antibody variable genes. PCR products were cloned into a PCR sequencing vector for sequencing.

[5] = target: T4, mAREG: mouse AREG comprising residues …; assay: ELISA screening after phage library selection
[6] = target: T1, hAREG: human AREG comprising residues …; assay: ELISA screening after phage library selection
[7] = target: T5, biotinylated mAREG-EGFd (expressed in E. coli) (mouse, UniProt P31955 135-177, limits assumed, biotinylated); assay: phage antibody library selection and ELISA screening
T5 construct: domain: EGFd; E. coli-expressed biotinylated form used for the library selection; not the mFc fusion m33
T5 chain (looked up): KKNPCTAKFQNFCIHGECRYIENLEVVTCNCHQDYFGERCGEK
Procedure: (§3) Phage particles expressing scFv on their surface (phage-ScFv) were prepared from the library and used for selection of scFvs against the target antigens including the biotinylated AREG proteins and peptides. The antigens were captured on streptavidin-conjugated magnetic M-280 Dynabeads® (Life Technologies) and then incubated with 5×10¹² phage particles prepared from the library, respectively. For each soluble AREG protein or peptide (antigen, Ab), two rounds of selection were performed. For obtaining cross-reactive human mAbs recognizing both hAREG and mAREG, the hAREG and mAREG were used respectively in the 1st and 2nd rounds of selection. […] Some of the phage-Abs were subsequently converted into human IgG1 (hIgG1) or mouse IgG2a format and analyzed for binding to both hAREG and mAREG using enzyme-linked immunosorbent assay (ELISA) or Biacore.
(§4) About […] of AREG protein or peptide at 100 μL per well were then captured onto the plates by incubation at 30° C. for 1 hour. […] Specific bound phage-scFvs were detected by adding HRP-conjugated mouse anti-M13 antibody (GE Healthcare) and incubated for 30 mins at 30° C. […] The absorbance at 450 nm with the correction wavelength set at 630 nm was read by a microplate reader (Bio-Rad). […]

C18 peptide [8] = target: T3, C18 peptide; assay: phage antibody library selection on the C18 peptide and ELISA screening
Procedure: as §3, §4

hAREG-E149K variant = target: T6, hAREG-E149K variant (human, UniProt P15514 142-184); assay: SPR (Biacore T200)
T6 construct: also called E149K variant of hAREG-EGFd
T6 chain: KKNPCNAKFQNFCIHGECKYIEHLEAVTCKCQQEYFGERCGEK

hAREG-H164N variant = target: T7, hAREG-H164N variant (human, UniProt P15514 142-184); assay: SPR (Biacore T200)
T7 construct: also called H164N variant of hAREG-EGFd
T7 chain: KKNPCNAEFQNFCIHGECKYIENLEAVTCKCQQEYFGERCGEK

hAREG-EGFd-mFc = target: T8, hAREG-EGFd-mFc (human; mouse, UniProt P15514 142-184); assay: SPR, Biacore T200; mAb captured on anti-human Fc chip, antigen in solution
T8 construct: Expressed in 293F cells; not shown: Fc fragment of mouse IgG2a
T8 chain: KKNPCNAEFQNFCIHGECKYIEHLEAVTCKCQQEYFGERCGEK
Procedure: (§5) To evaluate affinities of different mouse hybridoma mAbs or their humanized and engineered variants, SPR measurement was performed using Biacore T200 instrument. mAbs were captured on anti-human Fc CM5 biosensor chip surface, hAREG-EGFd-mFc, mAREG-EGFd-mFc or hAREG-98aa (purchased from PeproTech, cat #100-55B) in serial dilutions were injected over antibody-bound surface, followed by a dissociation phase. Association rates (Ka) and dissociation rates (Kd) were calculated using the one-to-one Langmuir binding model (BIA Evaluation Software, GE Life Sciences). The equilibrium dissociation constant (KD) was calculated as the ratio kd/ka.

mAREG-EGFd-mFc = target: T9, mAREG-EGFd-mFc (mouse, UniProt P31955 135-177); assay: as above
T9 construct: also called EGF domain of mAREG (aa135-177) fused with mFc tag; not shown: mFc tag (Fc fragment of mouse IgG2a as for hAREG-EGFd-mFc)
T9 chain: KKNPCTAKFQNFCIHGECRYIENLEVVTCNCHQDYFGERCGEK
Procedure: as §5

hAREG-98aa = target: T10, hAREG-98aa (human, UniProt P15514 101-198); assay: as above
T10 construct: Bought protein
T10 sequence (looked up): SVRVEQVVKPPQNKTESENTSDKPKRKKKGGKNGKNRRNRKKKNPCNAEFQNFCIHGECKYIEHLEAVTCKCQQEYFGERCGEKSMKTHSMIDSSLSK
Procedure: as §5

B1: P7 (antibody, V domains shown)
VH: EVQLVQSGGGVVQPGRSLRLSCAASGFIFSSHAMSWVRQAPGKGLEWVSAISGSGGSTYYADSVKGRFTISRDNSKNTLYLQMNSLRAEDTAVYYCAKVDTKFDPWGQGTLVTVSS
VL: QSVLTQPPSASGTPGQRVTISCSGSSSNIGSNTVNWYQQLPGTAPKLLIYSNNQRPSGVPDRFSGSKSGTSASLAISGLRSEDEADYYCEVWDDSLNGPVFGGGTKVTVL
notes: Human mAb from a phage scFv library, selected on the C18 peptide; Human IgG1 or mouse IgG2a format
EC50 (read off the curve) [1]: ~0.08 nM
binding result (mAREG-EGFd-DLLA-mFc): binds
EC50 (read off the curve) (C18 peptide [2]): ~0.06 nM
EC50 (read off the curve) [3]: ~0.9 nM

B2: 23H8 (antibody, V domains shown)
VH: EVQLQESGGGLVKPGGSLKLSCAASGFTFNSYAMSWVRQTPEKRLEWVATISTGGSHTYYPDSVKGRFTISRDNAKNTLYLQMSSLRSEDTAMYYCARHGYLLYDGYYEWYFDVWGAGTTVTVSS
VL: DIVLTQSPASLAVSLGQRATISCKASQSVDYDGHSFLNWYQQKPGQPPKLLIYAASNLESGLPARFSGSGSGTDFTLNIHPVEEEDAATYYCQQSTEDPPYTFGGGTKLEIK
notes: Mouse hybridoma mAb; made recombinantly as mIgG1, mIgG2a or chimeric human IgG1; also called m23H8
binding result [4]: binds

B3: 9C12 (antibody, V domains shown)
VH: EVKLVESGGGLVKPGGSLKLSCAASGFTFSSYPMSWVRQTPEKRLEWVATISTGGTYTYYPDSVKGRFTISRDNAKNTLYLQMSSLRSEDTAMYYCARQGPIYYGNYYYAMDYWGQGTSVTVSS
VL: DIVMTQPPLSLPVSLGDQASISCRSSQSLVHSDGNTYLHWYLQRPGQSPKLLIYKVSNRFSGVPDRFSGSGSGTDFTLKISRVEAEDLGVYFCSQSTHVPYTFGGGTKLEIK
notes: Mouse hybridoma mAb; made recombinantly as mIgG1, mIgG2a or chimeric human IgG1; also called m9C12
binding result [4]: binds

B4: E1L2 (antibody, V domains shown)
VH: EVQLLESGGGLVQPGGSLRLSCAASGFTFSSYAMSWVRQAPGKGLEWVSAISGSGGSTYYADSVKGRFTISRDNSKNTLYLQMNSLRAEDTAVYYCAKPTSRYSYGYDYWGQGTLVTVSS
VL: QAGLTQPPSVSKGLRQTATLTCTGNSNNVGDQGAVWLQQHQGHPPRLLSYRNNNRPSGISERFSASRSGNTASLTITGLQPEDEADYYCSTWDSGLNSVVFGGGTQLTVL
notes: Human mAb from a phage scFv library; Phage-Abs were converted into human IgG1 or mouse IgG2a format
binding result [5]: binds
binding result [6]: binds
binding result [7]: binds
binding result (C18 peptide [8]): binds

B5: hu9C12v4 (antibody, V domains shown)
VH: EVQLVESGGGLVKPGGSLRLSCAASGFTFSSYPMSWVRQAPEKGLEWVSTISTGGRYTYYPDSVKGRFTISRDNAKNSLYLQMNSLRAEDTAVYYCARQGPIYYGNYYYAMDYWGQGTTVTVSS
VL: DIVMTQSPLSLPVTLGDPASISCRSSQSLVDGEDGTYLNWFQQRPGQSPKLLIYKVSERFDGVPDRFSGSGSGTDFTLKISRVEAEDVGVYYCSQSTHVPYTFGGGTKVEIK
notes: Humanized 9C12 variant
binding result (mAREG-EGFd-DLLA-mFc): binds
binding result (hAREG-E149K variant): binds
binding result (hAREG-H164N variant): no binding
Kd (hAREG-EGFd-mFc): 1.04 nM
koff (hAREG-EGFd-mFc): 0.00077 s⁻¹
kon (hAREG-EGFd-mFc): 745000 M⁻¹ s⁻¹
Kd (mAREG-EGFd-mFc): 9.01 nM
Kd (hAREG-98aa): 0.462 nM
koff (hAREG-98aa): 0.00372 s⁻¹
kon (hAREG-98aa): 8.04e+06 M⁻¹ s⁻¹

B6: E1H3L4 (antibody, V domains shown)
VH: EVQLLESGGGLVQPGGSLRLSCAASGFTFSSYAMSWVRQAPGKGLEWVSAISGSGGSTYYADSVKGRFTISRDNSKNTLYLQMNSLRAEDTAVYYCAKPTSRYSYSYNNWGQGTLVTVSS
VL: QAVLTQPPSASGTPGQRVTISCTGNSNNVGDQGAVWYQQLPGTAPKLLIYRNNNRPSGVPDRFSGSKSGTSASLAISGLQSEDEADYYCSTWDKNNKSVVFGGGTKLTVL
notes: Human IgG1 or mouse IgG2a format
EC50 (read off the curve) [1]: ~0.06 nM
binding result (mAREG-EGFd-DLLA-mFc): binds
EC50 (read off the curve) (C18 peptide [2]): ~0.2 nM
EC50 (read off the curve) [3]: ~0.5 nM
